In assay [1] the target is T1, Hsp60 of H. pylori (Helicobacter pylori, UniProt P42383 1-546).
T1 construct: Purified as an oligomer
Nature of the assay: sandwich ELISA: polyclonal rabbit anti-H. pylori antigen as catcher, antigen diluted 1:2 from 50 ng/ml, mAb supernatant as detector; lowest antigen concentration with extinction >= 2x control.
Protocol: (§1) Between the single steps the ELISA plate was washed 2 to 3 times with 300 μl PBS with 0.025% Tween (washing buffer) (vol.:vol.). The ELISA plates (MaxiSorb; Nunc) were coated for 1 hour at 37° C. with 100 μl of a solution of a polyclonal rabbit-anti-H. pylori antigen (pAK; approx. 10 μg antibody/ml carbonate buffer, 0.1 M, pH 9.5). In order to block the binding-sites that are still free 200 μl 150 mM PBS with 2% skimmed-milk powder (weight:volume) were pipetted per dish and incubated for 30 min at room temperature. 50 ng/ml purified H. pylori antigens solved in 150 mM PBS were diluted adding 0.1% skimmed-milk powder in 1:2 steps. The buffer served as a negative control. Then, 100 μl culture supernatant diluted 1:10 of the mAK against the same antigen, which is to be analysed, was added and incubated for 30 for 60 min at room temperature. […] The lowest concentration in which an extinction was still detected that was larger than or the same as twice the control was accepted as detection limit.

For assay [2], the target named is β-urease (large subunit) of H. pylori (Helicobacter pylori, UniProt P69996 1-569). The assay is described as above.
Protocol: as §1
Assay [3] concerns the target H. pylori urease (oligomeric, purified) (Helicobacter pylori, UniProt P14916 1-238; P69996 1-569). Briefly: SPR (BIAcore), mAb captured by rabbit anti-mouse antibody, H. pylori antigen injected; unit inferred. Background: Surface plasmon resonance follows binding to a sensor surface in real time, without labels.
Protocol: First, a polyclonal rabbit-anti-mouse antibody was immobilised on the dextran matrix of the BIAcore CM5 glass carrier chip. By adding the first H. pylori antigen-specific monoclonal antibody (1. MAK; 100 μg/ml; 10 μl), it reacted with the immobilised catching antibody and the respective change was measured at the detector (ΔRU₁; RU Resonance Units). After adding the H. pylori antigen (45 μg/ml; 5 μl), it reacted with the first mAK. Then, the remaining free catching antibody was blocked with an unspecific mouse-antibody (1 mg/ml; 10 μl) and oligomeric epitopes by adding another first mAK (100 μg/ml; 10 μl). After the reaction then following of the second H. pylori-antigen-specific antibody (2nd mAK; 100 μg/ml; 10 μl) with the bound antigen, the change in the signal of the detector (ΔRU₂) was determined anew and was compared in percentage to the change at the detector after adding the 1st mAK (ΔRU₂/ΔRU₁). A ratio of ΔRU₂/ΔRU₁<10% indicated overlapping epitopes.
In assay [4] the target is T2, alkylhydroperoxide-reductase of H. pylori (26 kDa-protein) (Helicobacter pylori, UniProt P21762 1-198).
T2 construct: Purified as an oligomer; also called 26 kDa-antigen; Alkylhydroperoxide reduktase
T2 sequence (looked up): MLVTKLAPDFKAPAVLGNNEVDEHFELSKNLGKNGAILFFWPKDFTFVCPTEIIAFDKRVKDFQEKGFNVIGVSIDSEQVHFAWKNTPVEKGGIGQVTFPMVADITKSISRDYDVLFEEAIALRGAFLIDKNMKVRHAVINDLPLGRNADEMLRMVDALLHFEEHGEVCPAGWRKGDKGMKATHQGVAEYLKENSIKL
Briefly: sandwich ELISA: polyclonal rabbit anti-H. pylori antigen as catcher, antigen diluted 1:2 from 50 ng/ml, mAb supernatant as detector; lowest antigen concentration with extinction >= 2x control. (In general: An ELISA detects its analyte on a solid surface through an enzyme-linked reagent.)
Protocol: as §1

β-urease (large subunit) of H. pylori, sequence (P69996 whole entry): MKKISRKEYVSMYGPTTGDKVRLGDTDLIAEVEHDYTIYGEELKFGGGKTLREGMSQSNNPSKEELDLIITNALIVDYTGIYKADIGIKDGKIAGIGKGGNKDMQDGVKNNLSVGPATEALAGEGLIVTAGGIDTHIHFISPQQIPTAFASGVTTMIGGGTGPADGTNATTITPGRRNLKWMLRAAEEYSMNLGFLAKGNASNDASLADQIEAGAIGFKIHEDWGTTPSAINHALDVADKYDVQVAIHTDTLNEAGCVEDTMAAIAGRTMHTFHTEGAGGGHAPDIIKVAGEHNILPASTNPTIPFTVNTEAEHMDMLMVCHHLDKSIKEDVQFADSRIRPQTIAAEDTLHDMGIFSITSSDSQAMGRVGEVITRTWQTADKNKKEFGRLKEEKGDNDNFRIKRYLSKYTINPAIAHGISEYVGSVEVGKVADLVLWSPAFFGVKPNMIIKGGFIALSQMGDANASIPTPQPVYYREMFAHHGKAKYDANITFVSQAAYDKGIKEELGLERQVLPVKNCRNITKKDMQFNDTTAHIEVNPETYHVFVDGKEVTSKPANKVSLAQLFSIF
T1 sequence (P42383 whole entry): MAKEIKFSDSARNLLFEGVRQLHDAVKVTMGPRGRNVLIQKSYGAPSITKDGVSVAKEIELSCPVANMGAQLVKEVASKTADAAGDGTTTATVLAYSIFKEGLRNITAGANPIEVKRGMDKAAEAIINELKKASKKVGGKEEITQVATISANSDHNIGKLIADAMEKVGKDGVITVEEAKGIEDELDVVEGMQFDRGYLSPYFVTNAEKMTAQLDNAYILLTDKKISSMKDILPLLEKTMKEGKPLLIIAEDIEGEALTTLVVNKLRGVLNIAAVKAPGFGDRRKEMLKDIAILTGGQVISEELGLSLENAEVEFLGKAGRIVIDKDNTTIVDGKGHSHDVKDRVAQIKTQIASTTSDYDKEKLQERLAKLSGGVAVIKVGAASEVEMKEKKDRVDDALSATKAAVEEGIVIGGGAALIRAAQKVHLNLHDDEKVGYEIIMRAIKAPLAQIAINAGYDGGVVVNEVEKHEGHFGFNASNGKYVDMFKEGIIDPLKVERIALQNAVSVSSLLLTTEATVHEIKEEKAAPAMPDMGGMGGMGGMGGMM
H. pylori urease (oligomeric, purified), sequence (P14916 whole entry, chain 1 of 2): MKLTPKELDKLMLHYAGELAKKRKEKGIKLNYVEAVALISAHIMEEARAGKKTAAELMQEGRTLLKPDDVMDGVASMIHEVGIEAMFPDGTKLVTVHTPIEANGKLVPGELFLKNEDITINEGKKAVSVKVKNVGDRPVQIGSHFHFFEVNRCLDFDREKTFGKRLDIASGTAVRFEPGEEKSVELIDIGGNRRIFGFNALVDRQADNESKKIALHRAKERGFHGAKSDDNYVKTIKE
H. pylori urease (oligomeric, purified), sequence (P69996 whole entry, chain 2 of 2): as the sequence (P69996 whole entry) above

B1: HP16m/2A5-E6-E5 (antibody, mouse IgG1, V domains shown)
VH: VQLLEESGPGLVAPSQSLSITCTVSGFSLSRYSVHWVRQPPGKGLEWLGMIWGGGSTDYNSGLKSRLSISNDNSKSQVFLKMNSLQTDDTAIYYCARNMGGRYPDYFDYWGQGTTLTVSS
VL: DIVLTQSPASLAVSLGQRATISCRASKSVSTSGYSYIHWYQQKPGQPPKLLIFLASNLESGVPARFSGSGSGTDFTLNIHPVEEEDAATYHCQHSRELPLTFGAGTKLELK
notes: also called DSM ACC2356
In the case of B1, the “NWG (detection limit)” value in assay [1] was determined as 3 ng Ag/ml.

B2: HP8m/4H5-D4-C9 (antibody, V domains shown)
VH: VQLLEQSGAELVKPGASVKISCKASGYAFSTSWMNWVKQRPGKGLEWIGRIYPGDGDTNYNGKFKGKATLTADKSSSTAYMQLNSLTSEDSAVYFCVREDAYYSNPYSLDYWGQGTSVTVSS
VL: DILLTQSPAILSVSPGERVSFSCRASQSIGTRIHWYQQRTNGSPRLLIKYGSESISGIPSRFSGSGSGTDFSLSINSVESEDIADYYCQQSNTWPLTFGAGTKLELK
notes: also called DSM ACC2360; first monoclonal antibody that is specific to urease
In general, koff refers to the first-order rate constant of dissociation. A high value points to fast dissociation. For the molecule B2, the “NWG (detection limit)” value in assay [2] was 0.6 ng Ag/ml. The molecule also registered an off-rate constant (koff) in assay [3] of 4.5e-06 s⁻¹.

B3: HP9.1m/3C2-F8-E2 (antibody, mouse IgG1, V domains shown)
VH: VQLLEESGGGLVKPGGSLQLSCSASGFTFSSHFMSWVRQTPEKRLEWVASISSGGDSFYPDSLKGRFAISRDNARNILFLQMSSLRSEDSAMYFCTRDYSWYALDYWGQGTSVTVSS
VL: ELQMTQSPSSLSASLGDTITITCHASQNINVWLSWYQQKPGDIPKLLIYKASNLHTGVPSRFSGSGSGTGFTLVISSLQPEDIATYYCQQGRSYPLTFGAGTKLELK
notes: also called DSM ACC2362; second monoclonal antibody that is specific to urease
For B3, the “NWG (detection limit)” value in assay [2] was 1.2 ng Ag/ml.

B4: HP15m/3E8-D9-D6 (antibody, IgG1, V domains shown)
VH: VQLLEESGGGLVQPTGSLKLSCAASGFTFNSYAMYWVRQAPGKGLEWVARIRSKSDNYATYYANSVKDRLTISRDDSQNMLYLQMNNLKTEDTAMYYCVRDHDKFPFYYALDYWGPGTLVTVSS
VL: ELVLTQSPTIMSASLGERVTMTCTASSSVSSSYLHWYQQKPGSSPKLWIYSTSNLASGVPVRFSGSGSVTSYSLTISSMEAEDAATYYCHQYHRSPPTFGGGTKLEIK
notes: Murine; also called DSM ACC2355
As for B4, the “NWG (detection limit)” value in assay [4] stood at 0.6 ng Ag/ml.

The values above are taken from patent US20070009975A1 (DAKOCYTOMATION DENMARK A S, published 2007).
